From article PMC12646664
Blank lines part the entries; values can stand above or below the substance they belong to.

Biological target: Gα-interacting vesicle-associated protein (GIV), endogenous (human (endogenous in THP1)) (UniProt Q3V6T2)
Sequence of UniProt Q3V6T2 (Q3V6T2 whole entry): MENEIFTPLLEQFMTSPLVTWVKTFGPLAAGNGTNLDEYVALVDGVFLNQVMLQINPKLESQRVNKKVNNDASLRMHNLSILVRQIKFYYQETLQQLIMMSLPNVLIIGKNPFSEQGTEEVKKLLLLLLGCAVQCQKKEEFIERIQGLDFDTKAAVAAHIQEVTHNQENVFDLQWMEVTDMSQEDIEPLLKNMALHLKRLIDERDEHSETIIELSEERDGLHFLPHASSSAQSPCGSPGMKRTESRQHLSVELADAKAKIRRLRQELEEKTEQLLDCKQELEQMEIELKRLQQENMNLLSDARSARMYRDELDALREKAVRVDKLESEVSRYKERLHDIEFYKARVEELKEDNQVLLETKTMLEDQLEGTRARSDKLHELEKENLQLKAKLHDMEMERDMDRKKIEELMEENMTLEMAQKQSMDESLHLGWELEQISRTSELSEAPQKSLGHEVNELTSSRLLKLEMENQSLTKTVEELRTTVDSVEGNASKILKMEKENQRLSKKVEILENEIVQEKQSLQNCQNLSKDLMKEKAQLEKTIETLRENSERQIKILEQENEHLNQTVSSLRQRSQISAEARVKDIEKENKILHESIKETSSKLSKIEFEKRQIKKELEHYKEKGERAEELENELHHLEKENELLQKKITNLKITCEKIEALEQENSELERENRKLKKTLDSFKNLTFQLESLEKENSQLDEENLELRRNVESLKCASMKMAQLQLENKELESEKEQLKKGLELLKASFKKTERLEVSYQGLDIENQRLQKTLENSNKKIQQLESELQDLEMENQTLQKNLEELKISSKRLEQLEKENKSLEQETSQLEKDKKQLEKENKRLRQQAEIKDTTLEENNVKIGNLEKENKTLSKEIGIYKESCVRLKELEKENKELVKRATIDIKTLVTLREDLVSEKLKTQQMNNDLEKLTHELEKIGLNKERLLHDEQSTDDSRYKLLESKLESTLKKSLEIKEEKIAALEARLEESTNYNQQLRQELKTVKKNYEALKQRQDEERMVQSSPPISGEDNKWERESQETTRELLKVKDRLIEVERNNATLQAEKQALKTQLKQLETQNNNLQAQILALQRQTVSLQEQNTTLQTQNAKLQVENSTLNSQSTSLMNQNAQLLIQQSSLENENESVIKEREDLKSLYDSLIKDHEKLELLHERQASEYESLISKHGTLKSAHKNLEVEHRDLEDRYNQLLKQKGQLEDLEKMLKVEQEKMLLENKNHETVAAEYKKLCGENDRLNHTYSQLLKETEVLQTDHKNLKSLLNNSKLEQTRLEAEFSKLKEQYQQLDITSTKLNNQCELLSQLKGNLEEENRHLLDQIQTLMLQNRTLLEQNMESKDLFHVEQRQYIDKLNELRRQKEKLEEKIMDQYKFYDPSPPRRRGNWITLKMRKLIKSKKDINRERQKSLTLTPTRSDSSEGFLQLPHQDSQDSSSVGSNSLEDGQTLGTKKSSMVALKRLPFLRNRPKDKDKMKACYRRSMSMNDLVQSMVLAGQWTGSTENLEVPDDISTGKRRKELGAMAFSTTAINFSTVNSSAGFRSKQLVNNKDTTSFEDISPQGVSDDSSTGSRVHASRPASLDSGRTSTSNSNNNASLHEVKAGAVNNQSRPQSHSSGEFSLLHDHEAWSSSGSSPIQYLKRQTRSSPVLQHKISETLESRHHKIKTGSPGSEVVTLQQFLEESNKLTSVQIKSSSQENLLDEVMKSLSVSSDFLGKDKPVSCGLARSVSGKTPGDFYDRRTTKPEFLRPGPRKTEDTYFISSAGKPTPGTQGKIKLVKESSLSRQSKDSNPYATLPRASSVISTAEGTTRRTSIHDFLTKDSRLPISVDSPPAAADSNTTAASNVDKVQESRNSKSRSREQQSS

suppression by MDP pretreatment (10 μg/mL) of LPS (100 ng/mL)-induced NF-κB activation, luciferase reporter assay in HeLa cells with NOD2-1007fs: 20 % protection
Substance: HA-NOD2 1007fs (from UniProt Q9HC29 1-1040) (natural protein)

suppression by MDP pretreatment (10 μg/mL) of LPS (100 ng/mL)-induced NF-κB activation, luciferase reporter assay in HeLa cells with NOD2-WT: 65 % protection
Substance: HA-NOD2 (wild type) (from UniProt Q9HC29 1-1040) (natural protein)

suppression by MDP pretreatment (10 μg/mL) of LPS (100 ng/mL)-induced NF-κB activation, luciferase reporter assay in HeLa cells with NOD2 G908R: 7 % protection
Substance: HA-NOD2 G908R (from UniProt Q9HC29 1-1040) (natural protein)

suppression by MDP pretreatment (10 μg/mL) of LPS (100 ng/mL)-induced NF-κB activation, luciferase reporter assay in HeLa cells with NOD2 R702W: 45 % protection
Substance: HA-NOD2 R702W (from UniProt Q9HC29 1-1040) (natural protein)
